Numbering of substitutions follows the chain as printed. Entries after “also recorded” stand apart in the source; their conditions may differ. Like-named read-outs stand apart in the source and are kept apart here.
How the values were obtained:
[1] = biological target: human IGF-1R-ECD (secreted recombinant extracellular domain, amino acids 1-902, tagged with 10 or 12 histidine residues at the carboxyl terminus) (human) (UniProt P08069); test: BIACORE surface plasmon resonance: IGF-1R immobilized on CM5 chip (about 500 RU), Fab injected 500-3.1 nM, 25 C, 1:1 Langmuir model
IGF-1R = IGF-1R (Homo sapiens, UniProt P08069); test: antibody-induced IGF-1R down-regulation in MCF7 cells, Western blotting; format: cell-based; parameters: IGF-1R is normally localized at the plasma membrane of MCF7 cells; endogenous in cells; host or cells: MCF7; conditions: 10 μg/ml, 1, 4, 8 or 24 hours, 10% serum
Method: Further exploration of the mechanism of action of anti-IGF-1R antibodies was carried out by testing the ability of the antibodies of the invention, particularly human chimeric antibodies of 2B4, 9F2, 10H5, as well as human phage antibody YW95.6, to induce IGF-1R down-regulation. MCF7 cells were treated with various antibodies (10 μg/ml) for 1, 4, 8, or 24 hours in the presence of 10% serum-containing medium. The cell lysates were harvested, separated by SDS-PAGE, and analyzed for IGF-1R levels by Western blotting using an anti-IGF-1R beta-chain antibody (Cell Signaling Technology, Inc.; Beverly, Mass., USA) or anti-beta-actin antibody.
In a separate experiment, MCF7 cells were treated with serially diluted h10H5, and the cell lysates were analyzed for IGF-1R and IR levels using anti-IGF-1R and anti-IR β-chain antibodies at 1, 2, 4, and 8 hours post-continuous treatment.

MCF7 cells = test: cell viability assay ([…]-GLO), MCF7; format: cell-based, human
Method: The different cell lines were cultured in their respective culture media at 37° C. in a humidified atmosphere of 5% CO2. Subsequently, cells were detached from tissue-culture flasks using the cell-dissociation solution, TRIPLE SELECT™ solution (InVitrogen, Carlsbad, Calif., USA), and centrifuged at 1000 rpm for five minutes. Detached cells were washed once with PBS, counted, and seeded in 96-well plates (Corning, N.Y., USA) at 2000 cells per well in 100 μL of culture media. After an overnight incubation at 37° C. in a humidified atmosphere of 5% CO2, the cell-culture medium was replaced with 50 μL of starvation medium consisting of serum-free RPMI 1640™ medium without phenol red. The cells were then starved for five hours in the incubator before addition of 25 μL of each anti-IGF-1R monoclonal antibody at various dilutions in serum-free RPMI 1640™ phenol red-free media. Later, 25 μL of phenol red-free RPMI 1640™ media supplemented with 4% of fetal bovine serum (FBS) (Sigma) with or without 4 ng/ml of human recombinant IGF-I were added on top of the 50 μL of antibody. The cells were then placed at 37° C. with 5% CO2 for 5 to 6 days. At the end of the assay, cell viability was measured using the […]-GLO® kit according to the manufacturer's instructions (Promega, Madison, Wis., USA).
For the cell viability assay, MCF7 cells were seeded onto 96-well plates at 2000 cells/well and incubated overnight at 37° C. in a humidified atmosphere of 5% CO2/95% air in RPMI 1640™ medium supplemented with 10% FBS (Sigma, St. Louis, Mo.) and 1% GLUTAMAX™ reagent (Promega, Madison, Wis.). The next day cells were starved in serum-free RPMI 1640™ medium (phenol red-free) for five hours followed by addition of serially diluted human chimeric versions of 9F2, 2B4, and 10H5, as well as h10H5.vX, for one hour. Subsequently, phenol red-free PRMI 1640™ medium supplemented with FBS or IGF-I was added to reach a final concentration of 1% FBS and 1 ng/mL IGF-I. Cells were then incubated with continuous IGF-1R antibody exposure. After five days, the cell viability was then determined using a […]-GLO™ kit (Promega, Madison, Wis.) according to the manufacturer's instructions.

human IGF-1R-ECD = biological target: T1, human IGF-1R-ECD (Homo sapiens, UniProt P08069); test: phage-competition ELISA (phage IC50); format: binding
T1 construct: containing the extracellular domain (ECD, amino acids 1-902) tagged with 10 or 12 histidine residues at the carboxyl terminus; His10 or His12 (C); made in house; host or cells: CHO cells
Method: MAXISORP™ microtiter plates were coated with human IGF-1R-ECD at 5 μg/ml in PBS overnight and then blocked with CASEIN BLOCKER™ reagent (Pierce Biotechnology, Inc.). Phage from culture supernatants were incubated with serially diluted IGF-1R-ECD in PBS with 0.05% TWEEN 20™ surfactant (PBST) containing 1% bovine serum albumin (BSA) in a tissue-culture microtiter plate for 1 hour, after which 80 μl of the mixture was transferred to the target-coated wells for 15 minutes to capture unbound phage. The plate was washed with PBST, and HRP-conjugated anti-M13 (Amersham Pharmacia Biotech) was added (1:5000 in PBST containing 1% BSA) for 40 minutes. The plate was washed with PBST and developed by adding tetramethylbenzidine (TMB) substrate (Kirkegaard and Perry Laboratories, Gaithersburg, Md.). The absorbance at 450 nm was plotted as a function of target concentration in solution to determine an IC50. […] For the humanized hybridoma-derived clones, 2B4, 9F2, and 10H5, phage-Fab was used.
This assay was conducted as described in Section 1-II-A-(4) of this Example. For the YW95-phage-derived clones from the VH/VL phage library, phage-Fab-Zip was used.

cynomolgus-monkey IGF-1R = test: BIACORE surface-plasmon resonance, cynomolgus-monkey IGF-1R; format: binding; conditions: IgG, FIG. 15
Method: Binding affinities of selected antibodies to IGF-1R were determined by surface plasmon resonance measurements on a BIACORE™ 3000 instrument (BIAcore, Inc.). Human, murine, or cynomolgus-monkey IGF-1R was immobilized at a density of about 500 RU on the flow cells of a PIONEER™ CM5 sensor chip. Immobilization was achieved by random coupling through amino groups using a protocol provided by the manufacturer. Sensorgrams were recorded for binding of anti-IGF-1R Fab or IgG to these surfaces by injection of a series of solutions ranging from 500 nM to 3.1 nM and 250 nM to 0.78 nM in two-fold increments, respectively. The signal from the reference cell was subtracted from the observed sensorgram. Kinetic constants were calculated by non-linear regression analysis of the data according to a 1:1 Languir binding model using software supplied by the manufacturer.

[2] = YW95 phage-derived clones displayed as bivalent Fab-Zip on phage, read-out: phage IC50

B1: murine 10H5 Fab (Fab, V domains shown)
VH: QVQLQQPGAELVKPGASVTLSCKASGYTFTRFWIHWVKQRPGQGLEWIGEINPSNGRTNYNENFKNKATLTVDTSSSTAYMQLSSLTSEVSVVYYCARGGRLDQWGQGTT
VL: DIVMTQSQKFMSTSLGDRVSVTCKASQNVGSNVAWYQQKPGQSPEALIYSASYRYSGVPDRFTGSGSGTDFTLTISNVQSEDLAEYFCHQYNNYPYTFGGGTKVEIKR
B1 gave a Kd [1] of 22 nM.

B2: murine 2B4 Fab (Fab, V domains shown)
VH: QIQLVQSGPELKKPGETVKISCKASGYNLANYGLNWVKQAPGEGLKWMGWINTNTGAPTYAEEFKGRFVFFLETSASTAYLQINNLSDEDTATYFCARSIYYYASRYFNVWGAGTS
VL: DIQMTQTTSSLSASLGDKVTISCRASQDISNYLNWYQQKPDGTIKLLIYYTSRLHSGIPSRFSGSGSGTDYSLTISNLEQEDIATYFCQQGNTLPWTFGGGTKVEIKR
Molecule B2 has a Kd [1] of 24 nM.

B3: chimeric 2B4: human chimeric version of murine 2B4 (antibody, V domains shown)
VH: B2 VH
VL: B2 VL
For B3, the IGF-1R down-regulation (IGF-1R) was “rapidly down-regulated and reached maximal reduction by eight hours” and the “comparison of inhibitory effect on MCF7 proliferation / viability” value (MCF7 cells; in the presence of IGF-I) was “equivalent at decreasing the MCF7 cell viability”.

B4: YW95.3: anti-IGF-1R phage-display clone from VH/VL library; VL SEQ ID NO:66, VH SEQ ID NO:70 (antibody, V domains shown)
VH: EVQLVESGGGLVQPGGSLRLSCAASGFTFSSYAMSWVRQAPGKGLEWVSRISPSGGSTYYADSVKGRFTISADTSKNTAYLQMNSLRAEDTAVYYCAREHYFHWGGMDVWGQGTL
VL: DIQMTQSPSSLSASVGDRVTITCRASQSISSYLAWYQQKPGKAPKLLIYGASSRASGVPSRFSGSGSGTDFTLTISSLQPEDFATYYCQQYYSSPLTFGQGTKVEIKR
modifications: sequence is synthesized
B4 gave an IC50 (human IGF-1R-ECD; [2]) of 20 nM.

B5: YW95.6: human phage antibody clone against IGF-1R; VL SEQ ID NO:67, VH SEQ ID NO:71 (antibody, V domains shown)
VH: B4 VH with H100E, F102Y, H103Y, G106A
VL: B4 VL
modifications: sequence is synthesized
With B5 the IC50 (human IGF-1R-ECD; [2]) was 20 nM, the IGF-1R down-regulation (IGF-1R) was “rapidly down-regulated and reached maximal reduction by eight hours” and the “effect on the MCF7 cell viability compared to the media control” value (MCF7 cells; initial screen, 0.12 to 10 μg/ml) was “no effect”.

B6: YW95.81: anti-IGF-1R phage-display clone from VH/VL library; VL SEQ ID NO:68, VH SEQ ID NO:72 (antibody, V domains shown)
VH: EVQLVESGGGLVQPGGSLRLSCAASGFSFSSQGISWVRQAPGKGLEWVSTISYDGSTYYADSVKGRFTISADTSKNTAYLQMNSLRAEDTAVYYCARQFMLWGKQFGMDVWGQGTL
VL: B4 VL with Y91R, Y92F, S94V, L96F
modifications: sequence is synthesized
In the case of B6, the IC50 (human IGF-1R-ECD; [2]) is reported as 20 nM.

B7: YW95.87: anti-IGF-1R phage-display clone from VH/VL library; VL SEQ ID NO:69, VH SEQ ID NO:73 (antibody, V domains shown)
VH: B4 VH with H100S, F102Y, H103E, G106A
VL: B4 VL
modifications: sequence is synthesized
In the case of B7, the IC50 (human IGF-1R-ECD; [2]) is reported as 20 nM.

B8: h2B4.vX: humanized anti-IGF-1R antibody, direct HVR graft of murine 2B4; VL SEQ ID NO:44, VH SEQ ID NO:47 (antibody, V domains shown)
VH: EVQLVESGGGLVQPGGSLRLSCAASGYNLANYGLNWVRQAPGKGLEWVGWINTNTGAPTYAEEFKGRFTISADTSKNTAYLQMNSLRAEDTAVYYCARSIYYYASRYFNVWGQGTL
VL: DIQMTQSPSSLSASVGDRVTITCRASQDISNYLNWYQQKPGKAPKLLIYYTSRLHSGVPSRFSGSGSGTDFTLTISSLQPEDFATYYCQQGNTLPWTFGQGTKVEIKR
modifications: sequence is synthesized
For B8, the “binding affinity (phage IC50) against IGF-1R-ECD, in words” value (human IGF-1R-ECD; monovalent phage-Fab, after HVR grafting) was “micromolar binding affinity; also recorded: decreased into the micromolar range”.

B9: h9F2.vX: humanized anti-IGF-1R antibody, direct HVR graft of murine 9F2; VL SEQ ID NO:49, VH SEQ ID NO:51 (antibody, V domains shown)
VH: B8 VH with N28T, L34M, A57K, A61S, E62D, A104G
VL: B8 VL with S30N, N34T
modifications: sequence is synthesized
For B9, the “binding to human versus cyno IGF-1R” value (cynomolgus-monkey IGF-1R) was “comparable for human and cyno IGF-1R” and the IC50 (human IGF-1R-ECD; humanized hybridoma-derived clones displayed on phage as monovalent Fab, read-out: binding affinity (phage IC50) against IGF-1R-ECD) was 60 nM.

— patent publication US20090068110A1, “ANTIBODIES TO INSULIN-LIKE GROWTH FACTOR RECEPTOR” (Genentech, Inc., priority 2006, published 2009)
